Here are results for 2 molecules from patent publication US20140087995A1 (published 2014).

The target in test [1] is T1, human calcitonin receptor (human, UniProt P30988 25-474).
T1 construct: whole, on cells; also called hCTR; hCT
T1 sequence (looked up): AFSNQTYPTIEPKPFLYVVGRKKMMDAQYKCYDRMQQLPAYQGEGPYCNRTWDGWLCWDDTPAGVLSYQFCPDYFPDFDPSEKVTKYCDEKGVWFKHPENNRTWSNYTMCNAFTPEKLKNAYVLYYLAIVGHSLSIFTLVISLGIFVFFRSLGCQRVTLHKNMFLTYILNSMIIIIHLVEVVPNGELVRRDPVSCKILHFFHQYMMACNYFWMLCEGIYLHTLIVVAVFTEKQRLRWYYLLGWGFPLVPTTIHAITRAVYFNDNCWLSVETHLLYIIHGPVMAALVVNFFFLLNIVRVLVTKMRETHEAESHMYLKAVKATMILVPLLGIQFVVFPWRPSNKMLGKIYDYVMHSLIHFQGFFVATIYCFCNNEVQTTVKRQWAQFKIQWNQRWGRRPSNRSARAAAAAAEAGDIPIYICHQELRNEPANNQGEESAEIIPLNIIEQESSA
Put plainly: SPA radioligand competition (125I-calcitonin), membranes of BHK cells with human calcitonin receptor. The procedure:
Membranes were prepared in the following way; the cells were rinsed with PBS and incubated with Versene for approximately 5 min before harvesting. The cells were flushed with PBS and the cell-suspension was centrifuged for 5 min at 1000 rpm. Cells were homogenized (Ultrathurrax) in a buffer containing 20 mM Na-HEPES and 10 mM EDTA (pH 7.4) and centrifuged at 20.000 rpm for 15 min. The resulting pellet was resuspended, homogenized and centrifuged (20.000 rpm, 15 min) in a buffer containing 20 mM Na-HEPES and 0.1 mM EDTA (pH 7.4, buffer 2). The resulting pellet was resuspended in buffer 2 and protein concentration was measured (BCA protein Assay, Pierce). The homogenate was kept cold during the whole procedure. The membranes were kept at −80° C. until use. Assay was performed in a 384 well Optiplate (PerkinElmer) in a total volume of 40 ul. Membranes were mixed with SPA beads. Final concentration of membranes 35 ng/μL final and Final concentration of SPA beads was 0.05 mg/well. Test-compounds were dissolved in DMSO and further diluted in assay buffer (50 mM Hepes, pH 7.4, 1 mM CaCl2, 5 mM MgCl₂, 0.1% OA and 0.02% Tween20). […] The final mixture was incubated for 120 min with shaking at 400 rpm at 25° C. prior to centrifugation (1500 rpm, 10 min). Samples were analyzed on TopCounter™ (Packard). The […] was calculated using (one site binding competition analysis) GraphPad Prism5 as a measure of receptor affinity.

In test [2] the target is T1, human calcitonin receptor. Put plainly: ratio of IC50 at human calcitonin receptor to IC50 at human amylin receptor (SPA competition assays). On the procedure: The resulting pellet was resuspended, homogenized and centrifuged (20.000 rpm, 15 min) in a buffer containing 20 mM Na-HEPES and 0.1 mM EDTA (pH 7.4, buffer 2). The resulting pellet was resuspended in buffer 2 and protein concentration was measured (BCA protein Assay, Pierce). The homogenate was kept cold during the whole procedure. The membranes were kept at −80° C. until use. The assay was performed in a 384 well Optiplate (PerkinElmer) in a total volume of 40 ul. Membranes were mixed with SPA beads. Final concentration of membranes 35 ng/μL final and SPA beads was 0.05 mg/well. Test-compounds were dissolved in DMSO and further diluted in assay buffer (50 mM Hepes, pH 7.4, 1 mM CaCl2, 5 mM MgCl₂, 0.1% OA and 0.02% Tween20). […] The final mixture was incubated with shaking at 400 rpm for 120 min at 25° C. prior to centrifugation (1500 rpm, 10 min). Samples were analyzed on TopCounter™ (Packard). The IC₅₀ was calculated using (one site binding competition analysis) GraphPad Prism5 as a measure of receptor affinity.
Membranes were prepared in the following way; the cells were rinsed with PBS and incubated with Versene for approximately 5 min before harvesting. The cells were flushed with PBS and the cell-suspension was centrifuged for 5 min at 1000 rpm. Cells were homogenized (Ultrathurrax) in a buffer containing 20 mM Na-HEPES and 10 mM EDTA (pH 7.4) and centrifuged at 20.000 rpm for 15 min. The resulting pellet was resuspended, homogenized and centrifuged (20.000 rpm, 15 min) in a buffer containing 20 mM Na-HEPES and 0.1 mM EDTA (pH 7.4, buffer 2). The resulting pellet was resuspended in buffer 2 and protein concentration was measured (BCA protein Assay, Pierce). The homogenate was kept cold during the whole procedure. The membranes were kept at −80° C. until use. Assay was performed in a 384 well Optiplate (PerkinElmer) in a total volume of 40 ul. Membranes were mixed with SPA beads.

Numbered stars: 1 amine (or outer) side, 2 acyl side, 3 side chain; on linkers, the order of the positions; unused ones are H or OH. Bridge positions count the residues as written; N and C are the ends. Side chains are listed from the residue outwards. Ends that are not written are not given here. * marks the point of attachment. C20 diacid = O=C(O)CCCCCCCCCCCCCCCCCCC(=O)*; γGlu = O=C(O)[C@H](CCC(=O)[*:2])N[*:1]; AEEA = NCCOCCOCC(=O)O

B1: N^ε1-[2-[2-[2-(19-carboxynonadecanoylamino)ethoxy]ethoxy]acetyl]-[His14,Arg17,Pro21,Pro27]-h-amylin (peptide)
peptide: K([AEEA-C20 diacid])CNTATCATQRLAHFLRHSSPNFGAIPSSTNVGSNTY-NH2
modifications: disulfide 2-7; N-terminus assumed
SMILES: CC[C@H](C)[C@H](NC(=O)[C@H](C)NC(=O)CNC(=O)[C@H](Cc1ccccc1)NC(=O)[C@H](CC(N)=O)NC(=O)[C@@H]1CCCN1C(=O)[C@H](CO)NC(=O)[C@H](CO)NC(=O)[C@H](Cc1c[nH]cn1)NC(=O)[C@H](CCCNC(=N)N)NC(=O)[C@H](CC(C)C)NC(=O)[C@H](Cc1ccccc1)NC(=O)[C@H](Cc1c[nH]cn1)NC(=O)[C@H](C)NC(=O)[C@H](CC(C)C)NC(=O)[C@H](CCCNC(=N)N)NC(=O)[C@H](CCC(N)=O)NC(=O)[C@@H](NC(=O)[C@H](C)NC(=O)[C@@H]1CSSC[C@H](NC(=O)[C@@H](N)CCCCNC(=O)COCCOCCNC(=O)CCCCCCCCCCCCCCCCCCC(=O)O)C(=O)N[C@@H](CC(N)=O)C(=O)N[C@@H]([C@@H](C)O)C(=O)N[C@@H](C)C(=O)N[C@@H]([C@@H](C)O)C(=O)N1)[C@@H](C)O)C(=O)N1CCC[C@H]1C(=O)N[C@@H](CO)C(=O)N[C@@H](CO)C(=O)N[C@H](C(=O)N[C@@H](CC(N)=O)C(=O)N[C@H](C(=O)NCC(=O)N[C@@H](CO)C(=O)N[C@@H](CC(N)=O)C(=O)N[C@H](C(=O)N[C@@H](Cc1ccc(O)cc1)C(N)=O)[C@@H](C)O)C(C)C)[C@@H](C)O
notes: also called compound 90
For B1, the IC50 in test [1] turned out to be 2.57 nM. Moreover, the “Ratio hCT/hAmylin binding” value in test [2] was 42.2.

B2: N^ε1-[2-[2-[2-[[2-[2-[2-[[(4S)-4-carboxy-4-(19-carboxynonadecanoylamino)butanoyl]amino]ethoxy]ethoxy]acetyl]amino]ethoxy]ethoxy]acetyl]-[Arg17,Pro21,Pro27,Arg34 … (peptide)
peptide: K([AEEA-AEEA-γGlu-C20 diacid])CNTATCATQRLANFLRHSSPNFGAIPSSTNVGRNTY-NH2
modifications: disulfide 2-7; N-terminus assumed
SMILES: CC[C@H](C)[C@H](NC(=O)[C@H](C)NC(=O)CNC(=O)[C@H](Cc1ccccc1)NC(=O)[C@H](CC(N)=O)NC(=O)[C@@H]1CCCN1C(=O)[C@H](CO)NC(=O)[C@H](CO)NC(=O)[C@H](Cc1c[nH]cn1)NC(=O)[C@H](CCCNC(=N)N)NC(=O)[C@H](CC(C)C)NC(=O)[C@H](Cc1ccccc1)NC(=O)[C@H](CC(N)=O)NC(=O)[C@H](C)NC(=O)[C@H](CC(C)C)NC(=O)[C@H](CCCNC(=N)N)NC(=O)[C@H](CCC(N)=O)NC(=O)[C@@H](NC(=O)[C@H](C)NC(=O)[C@@H]1CSSC[C@H](NC(=O)[C@@H](N)CCCCNC(=O)COCCOCCNC(=O)COCCOCCNC(=O)CC[C@H](NC(=O)CCCCCCCCCCCCCCCCCCC(=O)O)C(=O)O)C(=O)N[C@@H](CC(N)=O)C(=O)N[C@@H]([C@@H](C)O)C(=O)N[C@@H](C)C(=O)N[C@@H]([C@@H](C)O)C(=O)N1)[C@@H](C)O)C(=O)N1CCC[C@H]1C(=O)N[C@@H](CO)C(=O)N[C@@H](CO)C(=O)N[C@H](C(=O)N[C@@H](CC(N)=O)C(=O)N[C@H](C(=O)NCC(=O)N[C@@H](CCCNC(=N)N)C(=O)N[C@@H](CC(N)=O)C(=O)N[C@H](C(=O)N[C@@H](Cc1ccc(O)cc1)C(N)=O)[C@@H](C)O)C(C)C)[C@@H](C)O
notes: also called compound 95
Turning to B2, the IC50 in test [1] amounted to 61.3 nM. Besides, the “Ratio hCT/hAmylin binding” value in test [2] is 63.4.

As usually defined, the IC50 is the point on the concentration scale where inhibition reaches its midpoint.
